Test results: patent US8138148B2, “GDNF derived peptides” (Copenhagen University, priority 2005, dated 2012)

Key:
Type in all cases: cell-based, rat
[1] = tested on: primary hippocampal neurons; assay: Neurite outgrowth assay, monocultures of primary hippocampal neurons; settings: monoculture, stimulated 24 hours; GDNF 1-100 ng/ml, peptides 0.1-27 μg/ml; versus medium alone
Protocol: (§1) Two different versions of the neurite outgrowth assay were used in this study, monocultures and co-cultures.
(§2) In monocultures, neurons are grown directly on plastic and the only neuritogenic stimulus is the one presented by the added substance. In co-cultures, neurons are grown on top of a confluent monolayer of fibroblasts expressing NCAM-140 (LBN110) or NCAM-negative control fibroblasts (LVN212). NCAM on the neurons interact with NCAM on LBN110 cells thereby stimulating neurite outgrowth from the neurons. This system thus permits the study of NCAM-NCAM interactions and interactions between NCAM and other molecules.
(§3) For all experiments cells were grown in neurobasal medium with supplements as described above in a final volume of 300 μl/well in 8-well LabTek® Permanox Chamber slides or 500 μl/well in 4-well LabTek® Permanox Chamber slides.
For monocultures, primary hippocampal neurons were seeded in 8-well LabTek® Permanox Chamber slides at a density of 10,000 cells/well.
(§4) To evaluate the effect peptides on neurite outgrowth, GDNF and the peptides, G1, G2, G3, A1, A2, A3, N1, N2 and N3 were diluted to the appropriate concentrations and added to the neurons approximately 10 minutes after seeding. Medium alone was added to controls, and cells were incubated for 24 hours.
Neurite outgrowth experiments were terminated after the stated time by fixating the cells. To visualize neurons and their neurites, immunostaining of GAP-43 was performed. This staining is specific for neurons. Transfected cells and their neurites should be visible without immunostaining due to the fluorescence emitted by GFP. […] GFP is a cytoplasmic protein, and since thin neurites only contain a small volume of cytoplasm, GFP is only found in small amounts in most neurites. Therefore, a double-staining protocol, where cells were immunostained against GFP and GAP-43, was adopted. This protocol allowed the identification of transfected cells on the basis of GFP-staining in combination with visualization of neurites based on GAP-43-staining. […]

hippocampal neurons [2] = assay: Neurite outgrowth assay, co-cultures of hippocampal neurons on control fibroblasts or NCAM-expressing fibroblasts; settings: 24 hours
Protocol: as §1, §2, §3
(§5) For cocultures, L-cells were seeded in 8-well LabTek® Permanox Chamber slides at a density of 100.000 cells/well, except for transfection experiments where cells were seeded in 4-well LabTek® Permanox Chamber slides at a density of 200.000 cells/well. L-cells were grown for 24 hours in DMEM supplemented with 10% (v/v) FCS, 1% (v/v) glutamax, 100 U/ml penicillin, 100 μg/ml streptomycin, 2.5 μg/ml fungizone, and 567 μg/ml neomycin (G418), followed by washing twice in neurobasal medium with supplements before primary hippocampal neurons were seeded at a density of 7.000 cells/well in 8-well slides or 20.000 cells/well in 4-well slides.
as §4
Neurite outgrowth experiments were terminated after the stated time by fixating the cells. To visualize neurons and their neurites, immunostaining of GAP-43 was performed. This staining is specific for neurons. Transfected cells and their neurites should be visible without immunostaining due to the fluorescence emitted by GFP. […] GFP is a cytoplasmic protein, and since thin neurites only contain a small volume of cytoplasm, GFP is only found in small amounts in most neurites. Therefore, a double-staining protocol, where cells were immunostained against GFP and GAP-43, was adopted. This protocol allowed the identification of transfected cells on the basis of GFP-staining in combination with visualization of neurites based on GAP-43-staining.
Without prior removal of the medium 300 μl/well (8-well slides) or 500 μl/well (4-well slides) of a PBS solution containing 0.4 mM CaCl2, 0.05 M sucrose and 8% (v/v) formaldehyde was added to the cultures for 20 minutes. Cells were then washed 10 minutes in PBS followed by washing in PBS with 1% (w/v) BSA for 20 minutes, after which cells were incubated with primary antibodies overnight at 4° C.
Rabbit anti-rat GAP-43 antibodies were diluted 1:1000 for staining of untransfected cells and 1:2000 for staining of transfected cells. Mouse anti-GFP antibodies were diluted 1:1000. Antibodies were diluted in a PBS solution containing 7% (v/v) FCS to block unspecific binding, 50 mM glycine to block formaldehyde used for fixation, 0.2% (v/v) saponin to permeabilize cells, and 0.02% (v/v) NaN3 to preserve antibodies for later use.
The next day cells were washed 10 minutes in PBS followed by washing in PBS with 1% (w/v) BSA for 20 minutes. Cells were then incubated with secondary antibodies diluted in PBS with 1% (w/v) BSA for one hour at room temperature. Goat anti-rabbit IgG antibodies conjugated to Alexa 488 were diluted 1:1000 for untransfected cells and 1:2000 for transfected cells. Goat anti-mouse IgG antibodies conjugated to Alexa 546 were diluted 1:1000. Finally cells were washed 3×7 minutes in PBS and mounted with fluorescent mounting medium. […]

hippocampal neurons [3] = assay: Neurite outgrowth of hippocampal neurons transfected with dominant negative FGFR; settings: 10 ng/ml GDNF or 3 μg/ml GDNFp1, 18 hours, dnFGFR vs empty vector
Protocol: as §5
Additionally, neurons were transiently transfected with a dominant negative version of the FGFR (dnFGFR), As an alternative to the use of a pharmacological FGFR inhibitor, The dnFGFR plasmid encodes an FGFR that lacks the kinase domain. This mutant receptor inhibits the function of wild type FGFR by engaging in dimers that lack kinase activity. Transfection with an empty vector served as control. Transfection was also done with wtFGFR in order to assess the effect of overexpressing the FGFR.
Transfections were performed with a Nucleofector™ device and a Rat Neuron Nucleofector™ kit (Amaxa Inc., Gaithersburg, Md., USA). This transfection method is based on electroporation in combination with a Nucleofector™ solution containing lipophilic agents. These agents form liposomes containing the plasmid DNA, which then enter the cells during electroporation. The method allows transfection of undividing cells such as neurons. 3 μg of the plasmid of interest was mixed with the Nucleofector™ solution and primary hippocampal neurons were resuspended in the mixture, electroporated in the Nucleofector™ device, and transferred to neurobasal medium with supplements and 5% (v/v) FCS. Cells were then incubated for 2 hours after which they were resuspended in medium without serum, counted, seeded and incubated for 6 hours before GDNF or GDNFp1 was added. Medium alone was added to control and cells were incubated for 18 hours.
All transient transfections in this study included co-transfection with a plasmid encoding EGFP, which allows the identification of transfected cells. To ensure that all EGFP-expressing cells also are transfected with the plasmid of interest, a ratio of […] between the EGFP-encoding plasmid and the plasmid of interest was used (i.e. 0.5 μg EGFP-encoding plasmid was used for each transfection).
Neurite outgrowth experiments were terminated after the stated time by fixating the cells. To visualize neurons and their neurites, immunostaining of GAP-43 was performed. This staining is specific for neurons. Transfected cells and their neurites should be visible without immunostaining due to the fluorescence emitted by GFP. […]

B1: GDNF: glial cell line-derived neurotrophic factor, full-length protein used as stimulus (protein)
chain: SPDKQMAVLPRRERNRQAAAANPENSRGKGRRGQRGKNRGCVLTAIHLNVTDLGLGYETKEELIFRYCSGSCDAAETTYDKILKNLSRNRRLVSDKVGQACCRPIAFDDDLSFLDDNLVYHILRKHSAKRCGCI
**Q.** For B1, which “neurite outgrowth, overall effect of treatment (one-way ANOVA)” value [1] is on record?
**A.** overall statistically significant effect

**Q.** What about the “neurite outgrowth, overall effect of treatment, neurons grown on NCAM-expressing fibroblasts” value (hippocampal neurons [2]; co-culture on NCAM-expressing fibroblasts, GDNF 1-100 ng/ml, peptides 0.1-81 μg/ml) of the same molecule?
**A.** overall significant effect

**Q.** What about the “neurite outgrowth, overall effect of treatment, neurons grown on control fibroblasts” value (hippocampal neurons [2]; co-culture on control fibroblasts, GDNF 1-100 ng/ml, peptides 0.1-81 μg/ml) of the same molecule?
**A.** overall significant effect

**Q.** What about the “difference between neurite outgrowth on control fibroblasts and on NCAM-expressing fibroblasts across concentrations (one-way ANOVA)” value (hippocampal neurons [2]; difference per concentration, expressed as percentage of control) of the same molecule?
**A.** mean differences are not all the same

**Q.** What about the “neurite outgrowth mediated by the substance after transfection with dominant negative FGFR, on NCAM-expressing fibroblasts” value (hippocampal neurons [3]; NCAM-expressing fibroblasts) of the same molecule?
**A.** decreases neurite outgrowth

**Q.** What about the “neurite outgrowth mediated by the substance after transfection with dominant negative FGFR, on control fibroblasts” value (hippocampal neurons [3]; control fibroblasts) of the same molecule?
**A.** decreases neurite outgrowth
